Measurements from the supplement of paper PMC10126150.
± gives the standard deviation of the averaged measurements.

test system: ATP; assay: switch fluorescence ratio, 500 uM ATP over buffer (Cy3 cluster intensity, sum of 5 cycles each) (fold (ratio)); higher = stronger signal-on switching upon ATP binding; sequences stand for … in TCGTCGGCAGCGTCAGATGTGTATAAGAGACAGTTTTTTTTTTTTTTTTTTTTTTTTT…TC; settings: aptamer strand: ATP DNA aptamer (quencher-CACCTGGGGGAGTATTGCGGAGGAAGG + anchor), 100 nM annealed; ATP concentration: 500 uM
Summary of the method: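 Exposure to 500 uM ATP lasted 15 min at 22 °C before imaging, and a selection-buffer image was taken beforehand, for Cy3-labelled switching-strand clusters on a modified Illumina MiSeq flow-cell annealed to 100 nM quencher-labelled ATP aptamer. Five buffer/ATP cycles were run with NaOH stripping and re-annealing between them. The fluorescence ratio per cluster is summed target-cycle over summed buffer-cycle Cy3 intensity, averaged per switch-domain sequence. Clusters outside 100-1000 RFU were excluded.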

Row | Sequence | switch fluorescence ratio
1 | ATTAAGCACC | 1.3 ± 0.079
2 | AAATGTGTAG | 0.977 ± 0.024
3 | TTAATATGGT | 0.99 ± 0.04
4 | GATTTCATCA | 0.967 ± 0.057
5 | TGGGCCAGTG | 1.05 ± 0.014
6 | AGGGAGCTGG | 0.998 ± 0.013
7 | AAAATAGGGA | 0.989 ± 0.024
8 | TTTGCAGTTC | 1.3 ± 0.32
9 | TAAAAATTAT | 1 ± 0.028
10 | CGGTTTTAAT | 0.99589 ± 0.00077
11 | TCATTTTTCT | 0.98 ± 0.021
12 | AGGGATTAGG | 0.99 ± 0.034
13 | ATGTTGAACT | 0.99 ± 0.002
14 | ATTATGTGGC | 0.9803 ± 0.0086
15 | CTGTGTCTTT | 0.995 ± 0.072
16 | TTTTTGTTTG | 0.985 ± 0.029
17 | CTATGTATTG | 0.9695 ± 0.0096
18 | TCGGGGCCGC | 0.981 ± 0.11
19 | GGATGTTTTT | 1.03 ± 0.026
20 | TTGGTTTAGT | 1.01 ± 0.025
21 | TTCTATTCGA | 1.008 ± 0.0058
22 | TGCTGTAACG | 1.02 ± 0.017
23 | ATGAGTACGG | 1.04 ± 0.03

Row | Sequence | switch fluorescence ratio
24 | AAAAGGGGAG | 1.14 ± 0.16
25 | AGGGCGCTAT | 1.05 ± 0.042
26 | GGGTTAAGCA | 0.9961 ± 0.0055
27 | CAGGGTGAAC | 1.02 ± 0.019
28 | ACAAGATGGG | 1.09 ± 0.082
29 | CATGTTGAAG | 0.986 ± 0.077
30 | GGGTATGATG | 1.01 ± 0.044
31 | CCTCAGCGGA | 3.35 ± 0.42
32 | TTTTTTTTCT | 1.02 ± 0.067
33 | GCGAGAAATC | 1.08 ± 0.019
34 | TTGCAGGGGA | 1.3 ± 0.38
35 | GCTTGAGGGA | 0.984 ± 0.042
36 | CATGATGTTG | 0.975 ± 0.026
37 | CATTTATATG | 1.02 ± 0.026
38 | TTTGTAGGAT | 1.04 ± 0.014
39 | TTATCGATTT | 0.995 ± 0.028
40 | ATCAAAAGAT | 0.9811 ± 0.0085
41 | TGAACAGGGG | 0.9869 ± 0.0078
42 | GTCGAGGAAT | 1.003 ± 0.0092
43 | GAGTTTGTAT | 0.961 ± 0.028
44 | GGTAGAAGGG | 0.989 ± 0.042
45 | ACAATTGCTA | 0.994 ± 0.03
46 | CAGGATATAT | 1.01 ± 0.027

Row | Sequence | switch fluorescence ratio
47 | ATTACAGGGC | 1.03 ± 0.012
48 | TATTTAGGCG | 0.99 ± 0.064
49 | TGGGCTACTC | 1.1 ± 0.044
50 | GGTTTTATGA | 1.002 ± 0.0062
51 | ACTTCACTGC | 1.34 ± 0.042
52 | GGTTTGGCGT | 0.981 ± 0.017
53 | TGAATTTTAA | 0.995 ± 0.042
54 | TACCTGGTCG | 1.03 ± 0.041
55 | TCGAGATTAA | 1.01 ± 0.024
56 | AGTCTGCGCG | 1.002 ± 0.007
57 | ATTAACTTTA | 1.01 ± 0.035
58 | TTGGAGGACA | 1.06 ± 0.019
59 | CTCTTCTGGT | 0.971 ± 0.04
60 | ACCCAGCATC | 1.49 ± 0.025
61 | ATCACATGAC | 1.19 ± 0.016
62 | ACCGGGTGGG | 1.12 ± 0.15
63 | CTTTTATGGG | 0.993 ± 0.023
64 | GTTATATTGT | 0.9943 ± 0.0096
65 | CTTTTTGAGG | 0.983 ± 0.048
66 | TGGTTGAGTT | 0.973 ± 0.021
67 | TAAGATGTCA | 1.02 ± 0.034
68 | GGAAATTTTT | 0.973 ± 0.019
69 | AAAAGCAGTT | 1.028 ± 0.004

Row | Sequence | switch fluorescence ratio
70 | ATCTAATTAG | 0.963 ± 0.045
71 | GCCGTCTGGC | 1.02 ± 0.045
72 | GTAGTTTTGT | 0.987 ± 0.032
73 | TGTTGGGGAC | 1.023 ± 0.0065
74 | GCCATATGTG | 1.02 ± 0.015
75 | TGAGAGGATG | 0.99 ± 0.021
76 | GGTTTATTGG | 1 ± 0.03
77 | CTAGTCATGC | 1.06 ± 0.0097
78 | TGGGTGGGGC | 0.997 ± 0.018
79 | GGGCCGAATG | 1.009 ± 0.0025
80 | GTGAGCTTGT | 1.02 ± 0.013
81 | TTGCATTTGG | 1.01 ± 0.088
82 | GCTCCATGGG | 1.02 ± 0.046
83 | TTCCGGTGAA | 1.0572 ± 0.00078
84 | TCGCGCGGGT | 0.9887 ± 0.008
85 | TGTCGGGGGT | 1.22 ± 0.18
86 | TGGCAGACTC | 1.28 ± 0.013
87 | CTTTGTGCGT | 0.99 ± 0.029
88 | TTAATTTTTT | 0.995 ± 0.037
89 | ATTATATGCG | 0.992 ± 0.0024
90 | AGGTGGTAGT | 1 ± 0.012
91 | TTGGATGACA | 1.02 ± 0.031
92 | TTTGATCGCT | 1.28 ± 0.46

Row | Sequence | switch fluorescence ratio
93 | TCGACGATTT | 1.23 ± 0.26
94 | AGATAGGTGT | 1.079 ± 0.003
95 | ATATGTAGGT | 0.998 ± 0.049
96 | TTAGGACAGC | 1.02 ± 0.021
97 | TATATGGGAT | 1.006 ± 0.0035
98 | TATGATCACG | 0.995 ± 0.011
99 | GAAATTCGAG | 1.01 ± 0.033
100 | CAGAATCAAC | 1.05 ± 0.014
101 | GTGGTTAGCA | 0.9712 ± 0.0065
102 | CGGACCGGAA | 1.011 ± 0.01
103 | CACTCGTGGC | 1.01 ± 0.053
104 | GAAAAGGTCA | 1.04 ± 0.019
105 | TAAGGTTTAT | 0.9979 ± 0.0072
106 | TTTATACCGC | 1.13 ± 0.071
107 | ATCCTTTGTG | 1.02 ± 0.053
108 | GGGGCTTGTG | 1.01 ± 0.028
109 | TGGGAATGAC | 2.01 ± 1.4
110 | GGTAGGGATG | 0.962 ± 0.024
111 | AATTTTTGTA | 0.984 ± 0.018
112 | GCGGCCAGGG | 1.23 ± 0.15
113 | GGGCAAACGA | 1.12 ± 0.025
114 | GCTATGTAGG | 1 ± 0.062
115 | GATTGCATGA | 0.996 ± 0.024

Row | Sequence | switch fluorescence ratio
116 | AGAGTGGGGC | 0.9817 ± 0.0089
117 | TGGGGGGGTT | 1 ± 0.034
118 | CGTGGGTTCG | 0.961 ± 0.025
119 | ACTGTAAGTC | 1.06 ± 0.026
120 | TGGAAATGCC | 1.07 ± 0.065
121 | CCTTTTTATG | 1.024 ± 0.0028
122 | CTAGCGGGGG | 0.993 ± 0.034
123 | TAAATTCAGA | 0.994 ± 0.031
124 | GCGTTTGGGC | 0.99 ± 0.057
125 | TACTTTGCTT | 1.06 ± 0.038
126 | GCTATGAAAA | 0.986 ± 0.028
127 | AATTCGACGT | 0.9963 ± 0.0091
128 | TAGGAAGCGT | 0.9777 ± 0.0039
129 | CGGAAGTCTT | 0.992 ± 0.024
130 | GCTACAGGTT | 1.007 ± 0.0092
131 | AGTGTTGTAT | 1.05 ± 0.044
132 | AAAGTTCGGC | 1.06 ± 0.024
133 | TCCAGTTATT | 1 ± 0.019
134 | ATGTAAGAGG | 0.9754 ± 0.0093
135 | AAAGGAAAAC | 1 ± 0.022
136 | CAGGAAGCAG | 1.05 ± 0.09
137 | GCGAATAGTT | 1.005 ± 0.0067
138 | TGTTTGGATG | 0.973 ± 0.029

Row | Sequence | switch fluorescence ratio
139 | CGGAAAATGT | 0.962 ± 0.016
140 | CGGCGCGTAG | 1.05 ± 0.031
141 | AATTTTTAGA | 0.987 ± 0.034
142 | TTCGTGTTAC | 1.32 ± 0.26
143 | TCCGAAACAT | 1.575 ± 0.011
144 | TTGGGTTTTG | 0.994 ± 0.031
145 | GCTCCCAAGG | 3.69 ± 0.46
146 | TCATTCGGAG | 1.02 ± 0.014
147 | CAGCATGTTT | 0.988 ± 0.024
148 | GCCAAACGGG | 1.13 ± 0.16
149 | AGATAAAGGG | 1.03 ± 0.017
150 | GAAGTTGGGT | 1.01 ± 0.029
151 | ACCGTTTTTA | 1.08 ± 0.097
152 | ATGTAATTTC | 0.9987 ± 0.0036
153 | TCGAGGGTCT | 1.023 ± 0.0083
154 | AATGATATCA | 1.01 ± 0.025
155 | GTGGGGAAAG | 0.99 ± 0.034
156 | CTTCTTCAGC | 1.44 ± 0.061
157 | TTTAGTGTTT | 1.004 ± 0.007
